IntAct's records for PubMed 31515488

B1: Notch homolog 2 N-terminal-like protein A (Homo sapiens), Q7Z3S9 (parent)
chain: MCVTYHNGTGYCKCPEGFLGEYCQHRDPCEKNRCQNGGTCVAQAMLGKATCRCASGFTGEDCQYSTSHPCFVSRPCLNGGTCHMLSRDTYECTCQVGFTGKECQWTDACLSHPCANGSTCTTVANQFSCKCLTGFTGQKCETDVNECDIPGHCQHGGTCLNLPGSYQCQCLQGFTGQYCDSLYVPCAPSPCVNGGTCRQTGDFTFECNCLPETVRRGTELWERDREVWNGKEHDEN
partner: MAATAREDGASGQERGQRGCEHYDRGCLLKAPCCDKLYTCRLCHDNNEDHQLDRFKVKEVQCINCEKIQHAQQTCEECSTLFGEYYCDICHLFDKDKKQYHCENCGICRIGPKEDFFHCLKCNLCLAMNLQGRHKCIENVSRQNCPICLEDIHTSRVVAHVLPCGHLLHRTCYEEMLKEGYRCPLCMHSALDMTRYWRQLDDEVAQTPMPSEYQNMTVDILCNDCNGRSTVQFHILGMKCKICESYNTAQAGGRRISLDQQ
B2: Phosphoserine phosphatase (Homo sapiens), P78330 (parent)
chain: MVSHSELRKLFYSADAVCFDVDSTVIREEGIDELAKICGVEDAVSEMTRRAMGGAVPFKAALTERLALIQPSREQVQRLIAEQPPHLTPGIRELVSRLQERNVQVFLISGGFRSIVEHVASKLNIPATNVFANRLKFYFNGEYAGFDETQPTAESGGKGKVIKLLKEKFHFKKIIMIGDGATDMEACPPADAFIGFGGNVIRQQVKDNAKWYITDFVELLGELEE
partner: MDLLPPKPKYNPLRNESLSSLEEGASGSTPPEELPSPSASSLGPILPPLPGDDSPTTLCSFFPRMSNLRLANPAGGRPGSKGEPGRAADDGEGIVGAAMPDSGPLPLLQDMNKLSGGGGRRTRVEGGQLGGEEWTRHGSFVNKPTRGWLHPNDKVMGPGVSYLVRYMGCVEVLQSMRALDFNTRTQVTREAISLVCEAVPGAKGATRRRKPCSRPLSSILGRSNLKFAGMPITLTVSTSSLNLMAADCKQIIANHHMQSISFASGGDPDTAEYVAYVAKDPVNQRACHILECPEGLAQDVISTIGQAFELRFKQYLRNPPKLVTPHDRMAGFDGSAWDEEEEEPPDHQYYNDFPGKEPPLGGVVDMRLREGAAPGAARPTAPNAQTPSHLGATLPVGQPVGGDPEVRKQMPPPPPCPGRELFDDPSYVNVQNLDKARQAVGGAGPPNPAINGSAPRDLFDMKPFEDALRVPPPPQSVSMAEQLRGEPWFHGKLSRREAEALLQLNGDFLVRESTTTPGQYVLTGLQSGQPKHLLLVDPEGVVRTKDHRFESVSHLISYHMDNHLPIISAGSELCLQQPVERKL
B3: Nuclear protein AMMECR1 (Homo sapiens), Q9Y4X0 (parent)
chain: MAAGCCGVKKQKLSSSPPSGSGGGGGASSSSHCSGESQCRAGELGLGGAGTRLNGLGGLTGGGSGSGCTLSPPQGCGGGGGGIALSPPPSCGVGTLLSTPAAATSSSPSSSSAASSSSPGSRKMVVSAEMCCFCFDVLYCHLYGYQQPRTPRFTNEPYPLFVTWKIGRDKRLRGCIGTFSAMNLHSGLREYTLTSALKDSRFPPMTRDELPRLFCSVSLLTNFEDVCDYLDWEVGVHGIRIEFINEKGSKRTATYLPEVAKEQGWDHIQTIDSLLRKGGYKAPITNEFRKTIKLTRYRSEKMTLSYAEYLAHRQHHHFQNGIGHPLPPYNHYS
partner: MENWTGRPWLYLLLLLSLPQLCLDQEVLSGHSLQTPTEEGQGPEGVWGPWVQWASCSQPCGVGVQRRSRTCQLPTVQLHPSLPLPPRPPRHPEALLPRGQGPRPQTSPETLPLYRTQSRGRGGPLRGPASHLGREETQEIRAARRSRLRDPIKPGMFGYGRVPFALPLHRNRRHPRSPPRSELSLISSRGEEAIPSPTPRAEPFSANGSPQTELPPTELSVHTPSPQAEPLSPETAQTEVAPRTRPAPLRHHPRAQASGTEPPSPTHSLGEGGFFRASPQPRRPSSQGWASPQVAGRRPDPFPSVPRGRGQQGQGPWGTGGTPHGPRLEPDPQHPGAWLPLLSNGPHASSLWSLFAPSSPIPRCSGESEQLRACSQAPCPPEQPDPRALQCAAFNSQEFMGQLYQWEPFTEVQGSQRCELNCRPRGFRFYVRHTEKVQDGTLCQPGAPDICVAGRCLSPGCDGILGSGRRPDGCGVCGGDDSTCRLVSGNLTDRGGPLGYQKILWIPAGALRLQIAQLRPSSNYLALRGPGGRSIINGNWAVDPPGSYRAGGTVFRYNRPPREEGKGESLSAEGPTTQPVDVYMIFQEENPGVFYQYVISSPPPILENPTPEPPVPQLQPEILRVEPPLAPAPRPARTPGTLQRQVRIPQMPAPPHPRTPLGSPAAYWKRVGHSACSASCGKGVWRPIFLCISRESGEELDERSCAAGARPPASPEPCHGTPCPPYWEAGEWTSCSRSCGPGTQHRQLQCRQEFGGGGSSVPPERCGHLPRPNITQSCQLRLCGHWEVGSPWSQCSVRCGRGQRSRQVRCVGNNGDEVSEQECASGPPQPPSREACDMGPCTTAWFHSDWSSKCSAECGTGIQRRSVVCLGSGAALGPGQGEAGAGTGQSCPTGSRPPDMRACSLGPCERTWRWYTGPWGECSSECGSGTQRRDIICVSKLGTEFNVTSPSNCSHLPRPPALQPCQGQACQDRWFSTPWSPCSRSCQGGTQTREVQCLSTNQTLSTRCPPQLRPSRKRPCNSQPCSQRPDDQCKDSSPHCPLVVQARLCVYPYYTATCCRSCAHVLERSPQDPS
B4: Growth arrest and DNA damage-inducible protein GADD45 gamma (Homo sapiens), O95257 (parent)
chain: MTLEEVRGQDTVPESTARMQGAGKALHELLLSAQRQGCLTAGVYESAKVLNVDPDNVTFCVLAAGEEDEGDIALQIHFTLIQAFCCENDIDIVRVGDVQRLAAIVGAGEEAGAPGDLHCILISNPNEDAWKDPALEKLSLFCEESRSVNDWVPSITLPE
partner: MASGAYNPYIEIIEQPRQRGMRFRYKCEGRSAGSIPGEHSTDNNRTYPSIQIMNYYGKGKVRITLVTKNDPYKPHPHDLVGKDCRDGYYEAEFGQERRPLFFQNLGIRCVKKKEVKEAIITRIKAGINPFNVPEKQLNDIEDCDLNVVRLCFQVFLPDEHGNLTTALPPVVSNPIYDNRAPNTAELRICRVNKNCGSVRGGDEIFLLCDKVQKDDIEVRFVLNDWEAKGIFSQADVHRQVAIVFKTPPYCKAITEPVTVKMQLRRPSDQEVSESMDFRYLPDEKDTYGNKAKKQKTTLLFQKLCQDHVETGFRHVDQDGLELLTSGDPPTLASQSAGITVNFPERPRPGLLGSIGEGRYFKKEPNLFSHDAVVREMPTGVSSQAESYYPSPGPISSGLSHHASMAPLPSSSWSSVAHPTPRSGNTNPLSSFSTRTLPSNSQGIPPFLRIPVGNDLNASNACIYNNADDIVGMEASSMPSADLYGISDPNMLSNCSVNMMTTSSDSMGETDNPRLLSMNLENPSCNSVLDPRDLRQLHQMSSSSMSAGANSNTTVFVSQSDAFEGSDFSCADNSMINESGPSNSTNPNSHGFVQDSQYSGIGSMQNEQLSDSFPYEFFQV
B5: Syntenin-2 (Homo sapiens), Q9H190 (parent)
chain: MSSLYPSLEDLKVDQAIQAQVRASPKMPALPVQATAISPPPVLYPNLAELENYMGLSLSSQEVQESLLQIPEGDSTAVSGPGPGQMVAPVTGYSLGVRRAEIKPGVREIHLCKDERGKTGLRLRKVDQGLFVQLVQANTPASLVGLRFGDQLLQIDGRDCAGWSSHKAHQVVKKASGDKIVVVVRDRPFQRTVTMHKDSMGHVGFVIKKGKIVSLVKGSSAARNGLLTNHYVCEVDGQNVIGLKDKKIMEILATAGNVVTLTIIPSVIYEHMVKKLPPVLLHHTMDHSIPDA
partner: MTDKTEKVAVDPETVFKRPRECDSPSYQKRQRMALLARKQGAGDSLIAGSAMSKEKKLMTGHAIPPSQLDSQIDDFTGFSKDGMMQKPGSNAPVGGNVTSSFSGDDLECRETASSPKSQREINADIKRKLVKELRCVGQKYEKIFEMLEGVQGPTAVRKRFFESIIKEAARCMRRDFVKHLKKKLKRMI
B6: Protein LDOC1 (Homo sapiens), O95751 (parent)
chain: MVDELVLLLHALLMRHRALSIENSQLMEQLRLLVCERASLLRQVRPPSCPVPFPETFNGESSRLPEFIVQTASYMLVNENRFCNDAMKVAFLISLLTGEAEEWVVPYIEMDSPILGDYRAFLDEMKQCFGWDDDEDDDDEEEEDDY
partner: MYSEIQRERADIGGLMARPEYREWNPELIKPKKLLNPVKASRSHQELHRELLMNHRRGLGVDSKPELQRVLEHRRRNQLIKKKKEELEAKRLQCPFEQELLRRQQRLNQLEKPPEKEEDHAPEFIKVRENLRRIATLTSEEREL
B7: Sperm microtubule associated protein 2 (Homo sapiens), Q9P2T0 (parent)
chain: MGDSRRRSLGNQPSSEAAGRSEREQDGDPRGLQSSVYESRRVTDPERQDLDNAELGPEDPEEELPPEEVAGEEFPETLDPKEALSELERVLDKDLEEDIPEISRLSISQKLPSTTMTKARKRRRRRRLMELAEPKINWQVLKDRKGRCGKGYAWISPCKMSLHFCLCWPSVYWTERFLEDTTLTITVPAVSRRVEELSRPKRFYLEYYNNNRTTPVWPIPRSSLEYRASSRLKELAAPKIRDNFWSMPMSEVSQVSRAAQMAVPSSRILQLSKPKAPATLLEEWDPVPKPKPHVSDHNRLLHLARPKAQSDKCVPDRDPRWEVLDVTKKVVASPRIISLAKPKVRKGLNEGYDRRPLASMSLPPPKASPEKCDQPRPGL

Variants of: B1
Settings: with zn363_human RCHY1, Q96PM5

Variant	effect of a mutation on the interaction
R74Q	with no effect

Variants of: B2
Settings: with shc1_human SHC1, P29353

Variant	effect of a mutation on the interaction
T152I	with no effect
T149M	with no effect

Variants of: B3
Settings: with atl4_human ADAMTSL4, Q6UY14

Variant	effect of a mutation on the interaction
R207G	with no effect

Variants of: B4
Settings: with rel_human REL

Variant	effect of a mutation on the interaction
G112S	with no effect

Variants of: B5
Settings: with ct457_human CT45A7, P0DMV0

Variant	effect of a mutation on the interaction
G242R	disrupting interaction strength
V182M	disrupting interaction strength
G225R	disrupting interaction strength

Variants of: B6
Settings: with FAM107A

Variant	effect of a mutation on the interaction
L12H	disrupting interaction strength

Variants of: B7
Settings: with fhl3_human FHL3, Q13643
Sequence of fhl3_human FHL3, Q13643 (Q13643 whole entry): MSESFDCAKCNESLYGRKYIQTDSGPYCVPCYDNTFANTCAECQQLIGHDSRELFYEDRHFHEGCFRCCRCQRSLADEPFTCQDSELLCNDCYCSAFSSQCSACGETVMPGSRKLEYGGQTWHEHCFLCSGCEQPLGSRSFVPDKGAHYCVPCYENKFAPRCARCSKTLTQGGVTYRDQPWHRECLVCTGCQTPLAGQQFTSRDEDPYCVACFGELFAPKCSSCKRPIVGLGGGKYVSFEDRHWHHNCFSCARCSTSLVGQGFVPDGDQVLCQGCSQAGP

Variant	effect of a mutation on the interaction
S39N	with no effect
H297Y	with no effect
